Reference: IntAct's records for PubMed 23075851
Values belong to the substance of their own block, whether it stands above or below them.

Legend:
asf1b_human ASF1B = asf1b_human ASF1B (UniProt Q9NVP2)
DAXX, Q9UER7-1 [1] = biological target: DAXX, Q9UER7-1
caf1a_human CHAF1A = caf1a_human CHAF1A (UniProt Q13111)
DAXX, Q9UER7-1 [2] = biological target: DAXX, Q9UER7-1; remark: listed apart in the source

Sequence of DAXX, Q9UER7-1 (Q9UER7 whole entry): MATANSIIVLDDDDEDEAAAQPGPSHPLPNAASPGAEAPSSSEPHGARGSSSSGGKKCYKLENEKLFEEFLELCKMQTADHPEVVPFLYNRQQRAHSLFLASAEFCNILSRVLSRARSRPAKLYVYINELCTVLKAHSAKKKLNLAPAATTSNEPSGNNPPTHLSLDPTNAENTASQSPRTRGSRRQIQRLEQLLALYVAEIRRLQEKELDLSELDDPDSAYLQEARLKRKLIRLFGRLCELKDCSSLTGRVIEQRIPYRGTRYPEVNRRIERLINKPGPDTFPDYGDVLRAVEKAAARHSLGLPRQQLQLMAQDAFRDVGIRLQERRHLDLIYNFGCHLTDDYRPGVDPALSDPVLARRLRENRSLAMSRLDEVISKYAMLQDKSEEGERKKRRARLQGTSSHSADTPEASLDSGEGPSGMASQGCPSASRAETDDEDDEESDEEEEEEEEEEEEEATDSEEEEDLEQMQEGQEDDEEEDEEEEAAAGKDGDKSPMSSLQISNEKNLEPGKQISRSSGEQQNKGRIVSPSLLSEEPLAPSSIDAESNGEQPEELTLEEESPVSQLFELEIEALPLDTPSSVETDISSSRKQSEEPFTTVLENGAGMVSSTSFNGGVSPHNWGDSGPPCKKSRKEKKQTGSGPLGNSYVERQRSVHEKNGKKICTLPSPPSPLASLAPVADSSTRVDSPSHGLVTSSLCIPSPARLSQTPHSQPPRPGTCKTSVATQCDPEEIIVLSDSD
Sequence of caf1a_human CHAF1A (Q13111 whole entry): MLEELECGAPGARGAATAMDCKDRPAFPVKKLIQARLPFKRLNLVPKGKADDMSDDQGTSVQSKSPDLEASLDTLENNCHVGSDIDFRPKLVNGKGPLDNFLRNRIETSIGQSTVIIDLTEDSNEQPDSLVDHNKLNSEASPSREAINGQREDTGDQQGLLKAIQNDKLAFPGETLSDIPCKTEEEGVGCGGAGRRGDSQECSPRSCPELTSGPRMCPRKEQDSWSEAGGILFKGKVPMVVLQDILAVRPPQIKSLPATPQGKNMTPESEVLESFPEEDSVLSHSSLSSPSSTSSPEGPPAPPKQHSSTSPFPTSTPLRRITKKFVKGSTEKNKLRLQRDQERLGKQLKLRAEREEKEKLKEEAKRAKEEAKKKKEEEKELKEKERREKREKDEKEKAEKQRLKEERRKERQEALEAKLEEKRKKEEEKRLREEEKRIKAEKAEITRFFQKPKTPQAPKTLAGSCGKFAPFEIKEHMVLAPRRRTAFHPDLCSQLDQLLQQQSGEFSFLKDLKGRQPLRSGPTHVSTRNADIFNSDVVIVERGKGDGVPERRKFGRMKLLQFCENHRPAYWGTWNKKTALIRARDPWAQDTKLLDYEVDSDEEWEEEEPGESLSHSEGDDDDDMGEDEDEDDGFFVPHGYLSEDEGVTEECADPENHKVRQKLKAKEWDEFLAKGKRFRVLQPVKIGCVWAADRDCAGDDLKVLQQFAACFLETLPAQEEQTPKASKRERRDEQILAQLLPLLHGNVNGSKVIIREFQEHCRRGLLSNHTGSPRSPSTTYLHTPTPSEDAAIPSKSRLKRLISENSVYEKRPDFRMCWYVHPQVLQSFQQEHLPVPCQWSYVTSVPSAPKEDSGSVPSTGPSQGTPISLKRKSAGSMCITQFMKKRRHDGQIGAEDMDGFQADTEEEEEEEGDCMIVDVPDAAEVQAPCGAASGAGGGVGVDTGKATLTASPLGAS
Sequence of asf1b_human ASF1B (Q9NVP2 whole entry): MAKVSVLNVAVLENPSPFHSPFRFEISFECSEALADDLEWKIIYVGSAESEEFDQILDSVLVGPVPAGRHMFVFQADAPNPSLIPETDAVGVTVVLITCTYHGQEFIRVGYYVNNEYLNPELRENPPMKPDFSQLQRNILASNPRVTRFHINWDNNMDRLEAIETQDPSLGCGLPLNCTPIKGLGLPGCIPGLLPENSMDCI

effect of a mutation on the interaction (asf1b_human ASF1B): disrupting interaction strength
Substance: Histone H3.3 (Homo sapiens) (from UniProt P84243) C111E

Substance: Histone H3.2 (Homo sapiens) (from UniProt Q71DI3) M91G
effect of a mutation on the interaction (DAXX, Q9UER7-1 [1]): increasing interaction strength

Substance: Histone H3.3 (Homo sapiens) (from UniProt P84243) G91M
effect of a mutation on the interaction (caf1a_human CHAF1A): increasing interaction strength
effect of a mutation on the interaction (DAXX, Q9UER7-1 [2]): decreasing interaction strength
